# Experimental data as given in patent EP0363874A1, “Enzymes bound to a polymer matrix in water-soluble form” (Etablissement TEXCONTOR, priority 1988, dated 1990).
# Tests used:
# [1] = Water solubility of the supported enzyme; format: physicochemical; details: for WATER SOLUBILITY: papain grafted onto DAS preparations of variable aldehyde titre
# Procedure: (§1) The proteolytic activity of the product of Example 1 was determined by the American Pharmacopeia method (USP XXI). Various DAS preparations of variable aldehyde titre were used, obtained by varying the reaction times, in order to establish a comparison between the aldehyde titre, the solubility of the enzymatic preparation and the activity of this latter.
# [2] = Proteolytic activity of papain grafted onto DAS, American Pharmacopeia method (USP XXI); format: biochemical; details: papain grafted onto DAS preparations of variable aldehyde titre
# Procedure: as §1
# [3] = Stability in solid state (retention of enzyme activity); format: physicochemical
# [4] = Stability in aqueous solution (retention of enzyme activity); format: physicochemical
# [5] = Release of enzyme from the polymer matrix; format: physicochemical; details: aqueous solution
Molecule,water-solubility ([1]; lyophilized product),WATER SOLUBILITY [1],µg OF ACTIVE PAPAIN per 100 mg POLYMER [2] [µg per 100 mg POLYMER],time for which the activity is maintained [3],time for which the activity is maintained [4],time without release of enzyme [5]
"DAS.2: papain grafted onto starch polyaldehyde (DAS) of aldehyde titre 5.8 x 10⁻³ meq CHO/mg and reduced with sodium borohydride (conjugate, UniProt P00784 134-345, looked up, grafted onto starch polyaldehyde, borohydride-reduced, papain grafted onto starch polyaldehyde (DAS) of aldehyde titre 5.8 x 10⁻³ meq CHO/mg and reduced with sodium borohydride) Papain: IPEYVDWRQKGAVTPVKNQGSCGSCWAFSAVVTIEGIIKIRTGNLNEYSEQELLDCDRRSYGCNGGYPWSALQLVAQYGIHYRNTYPYEGVQRYCRSREKGPYAAKTDGVRQVQPYNEGALLYSIANQPVSVVLEAAGKDFQLYRGGIFVGPCGNKVDHAVAAVGYGPNYILIKNSWGTGWGENGYIRIKRGTGNSYGVCGLYTSSFYPVKN",good water-solubility,YES,900,at least two years,at least six months,at least six months
"DAS.4: papain grafted onto starch polyaldehyde (DAS) of aldehyde titre 4.68 x 10⁻³ meq CHO/mg and reduced with sodium borohydride (conjugate, UniProt P00784 134-345, looked up, grafted onto starch polyaldehyde, borohydride-reduced, papain grafted onto starch polyaldehyde (DAS) of aldehyde titre 4.68 x 10⁻³ meq CHO/mg and reduced with sodium borohydride) Papain: IPEYVDWRQKGAVTPVKNQGSCGSCWAFSAVVTIEGIIKIRTGNLNEYSEQELLDCDRRSYGCNGGYPWSALQLVAQYGIHYRNTYPYEGVQRYCRSREKGPYAAKTDGVRQVQPYNEGALLYSIANQPVSVVLEAAGKDFQLYRGGIFVGPCGNKVDHAVAAVGYGPNYILIKNSWGTGWGENGYIRIKRGTGNSYGVCGLYTSSFYPVKN",–,YES,500,–,–,–
"DAS.3: papain grafted onto starch polyaldehyde (DAS) of aldehyde titre 8 x 10⁻³ meq CHO/mg and reduced with sodium borohydride (conjugate, UniProt P00784 134-345, looked up, grafted onto starch polyaldehyde, borohydride-reduced, papain grafted onto starch polyaldehyde (DAS) of aldehyde titre 8 x 10⁻³ meq CHO/mg and reduced with sodium borohydride) Papain: IPEYVDWRQKGAVTPVKNQGSCGSCWAFSAVVTIEGIIKIRTGNLNEYSEQELLDCDRRSYGCNGGYPWSALQLVAQYGIHYRNTYPYEGVQRYCRSREKGPYAAKTDGVRQVQPYNEGALLYSIANQPVSVVLEAAGKDFQLYRGGIFVGPCGNKVDHAVAAVGYGPNYILIKNSWGTGWGENGYIRIKRGTGNSYGVCGLYTSSFYPVKN",–,YES,200,–,–,–
"DAS.1: papain grafted onto starch polyaldehyde (DAS) of aldehyde titre 3.16 x 10⁻³ meq CHO/mg and reduced with sodium borohydride (conjugate, UniProt P00784 134-345, looked up, grafted onto starch polyaldehyde, borohydride-reduced, papain grafted onto starch polyaldehyde (DAS) of aldehyde titre 3.16 x 10⁻³ meq CHO/mg and reduced with sodium borohydride) Papain: IPEYVDWRQKGAVTPVKNQGSCGSCWAFSAVVTIEGIIKIRTGNLNEYSEQELLDCDRRSYGCNGGYPWSALQLVAQYGIHYRNTYPYEGVQRYCRSREKGPYAAKTDGVRQVQPYNEGALLYSIANQPVSVVLEAAGKDFQLYRGGIFVGPCGNKVDHAVAAVGYGPNYILIKNSWGTGWGENGYIRIKRGTGNSYGVCGLYTSSFYPVKN",–,MICELLE,800,–,–,–
